Results on ten molecules are retold here after article PMC12747378, “FtsZ phosphorylation modulates tail-core binding to tune cell division in Bacillus subtilis” (PLOS One, 2025).

T1: FtsZ core (residues 1-315) (Bacillus subtilis, UniProt P17865 1-315)
T1 construct: FtsZ, Bacillus subtilis, globular core, residues 1-315; The printed purification is TALON resin with elution by AcTEV protease; also called FtsZ globular core; tailless core; source: E. coli BL21 Star (DE3), purified
T1 sequence (looked up): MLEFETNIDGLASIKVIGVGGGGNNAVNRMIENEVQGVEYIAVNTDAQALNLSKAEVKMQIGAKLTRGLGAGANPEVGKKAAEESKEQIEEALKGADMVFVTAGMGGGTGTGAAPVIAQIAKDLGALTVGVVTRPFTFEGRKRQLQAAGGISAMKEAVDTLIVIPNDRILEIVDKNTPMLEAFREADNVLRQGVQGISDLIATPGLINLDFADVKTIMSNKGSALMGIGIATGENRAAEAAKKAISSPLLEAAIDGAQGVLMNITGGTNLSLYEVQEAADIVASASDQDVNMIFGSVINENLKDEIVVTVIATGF

T2: FtsZ core (residues 1-315), wild type (Bacillus subtilis, UniProt P17865 1-315)
T2 construct: FtsZ of Bacillus subtilis, globular core, residues 1-315; The plasmid paragraph names 'full-length B. subtilis FtsZ and variants' in pET-28a (His6, TEV site); also called FtsZ Core WT; tailless core; source: E. coli One Shot BL21 Star (DE3), purified (TALON resin, eluted with AcTEV protease); not shown: His6, N-terminal, cleaved
T2 sequence (looked up): T1 sequence (looked up)

T3: FtsZ core (residues 1-315) D210A/D213A (Bacillus subtilis, UniProt P17865 1-315, D210A | D213A)
T3 construct: FtsZ, Bacillus subtilis, globular core, residues 1-315, D210A/D213A; see S1 Appendix; also called acidic patch mutant core; source: E. coli BL21 Star (DE3), purified
T3 sequence (looked up): T1 sequence (looked up) with D210A, D213A

T4: FtsZ core (residues 1-315) M292H/I293W/F294K (Bacillus subtilis, UniProt P17865 1-315, M292H | I293W | F294K)
T4 construct: FtsZ of Bacillus subtilis, globular core, residues 1-315, M292H/I293W/F294K; Vector and tag as for 'FtsZ and variants'; also called FtsZ Core HWK; MIF pocket triple mutant; source: E. coli One Shot BL21 Star (DE3), purified (TALON resin, eluted with AcTEV protease); not shown: His6, N-terminal, cleaved
T4 sequence (looked up): T1 sequence (looked up) with M292H, I293W, F294K

T5: FtsZ core (residues 1-315) D210A/D213A (Bacillus subtilis, UniProt P17865 1-315, D210A | D213A)
T5 construct: FtsZ of Bacillus subtilis, globular core, residues 1-315, D210A/D213A; The sheet's label 'AA' is tied to D210A/D213A by the mean Kd (500.6 nM); Vector and tag as for 'FtsZ and variants'; also called FtsZ Core AA; acidic patch mutant; source: E. coli One Shot BL21 Star (DE3), purified (TALON resin, eluted with AcTEV protease); not shown: His6, N-terminal, cleaved
T5 sequence (looked up): T1 sequence (looked up) with D210A, D213A

B1: Full-length FtsZ (wild type) (natural protein, Bacillus subtilis, UniProt P17865 1-382, looked up)
chain: MLEFETNIDGLASIKVIGVGGGGNNAVNRMIENEVQGVEYIAVNTDAQALNLSKAEVKMQIGAKLTRGLGAGANPEVGKKAAEESKEQIEEALKGADMVFVTAGMGGGTGTGAAPVIAQIAKDLGALTVGVVTRPFTFEGRKRQLQAAGGISAMKEAVDTLIVIPNDRILEIVDKNTPMLEAFREADNVLRQGVQGISDLIATPGLINLDFADVKTIMSNKGSALMGIGIATGENRAAEAAKKAISSPLLEAAIDGAQGVLMNITGGTNLSLYEVQEAADIVASASDQDVNMIFGSVINENLKDEIVVTVIATGFIEQEKDVTKPQRPSLNQSIKTHNQSVPKREPKREEPQQQNTVSRHTSQPADDTLDIPTFLRNRNKRG
B2: Full-length FtsZ S333A (natural protein, Bacillus subtilis, UniProt P17865 1-382, looked up)
chain: B1 chain with S333A
B3: Full-length FtsZ S333E (natural protein, Bacillus subtilis, UniProt P17865 1-382, looked up)
chain: B1 chain with S333E
B4: MinCN, the 92aa N-terminal domain of MinC (domain or fragment, Bacillus subtilis, UniProt Q01463 1-92, looked up)
chain: MKTKKQQYVTIKGTKNGLTLHLDDACSFDELLDGLQNMLSIEQYTDGKGQKISVHVKLGNRFLYKEQEEQLTELIASKKDLFVHSIDSEVIT
notes: MinC, Bacillus subtilis, N-terminal domain, 92 aa; amplified from B. subtilis genomic DNA; Cloned in pGEX-6P-1 with a PreScission site; cleavage of GST not described; source: E. coli BL21 Star (DE3), purified
B5: FtsZ tail (residues 316-382) (domain or fragment, Bacillus subtilis, UniProt P17865 316-382, looked up)
chain: IEQEKDVTKPQRPSLNQSIKTHNQSVPKREPKREEPQQQNTVSRHTSQPADDTLDIPTFLRNRNKRG
notes: FtsZ, Bacillus subtilis, C-terminal tail, residues 316-382 (67 aa); Cloned in pGEX-6P-3 with a PreScission site; also called C-terminal tail; CTT; source: E. coli BL21 Star (DE3), purified; 15N-labelled in M9 minimal medium for NMR
B6: FtsZ tail (residues 316-382), wild type (domain or fragment, Bacillus subtilis, UniProt P17865 316-382, looked up)
chain: B5 chain
notes: FtsZ of Bacillus subtilis, C-terminal tail, residues 316-382; Cloned into pGEX-6P-3 with a PreScission site; also called FtsZ Tail WT; C-terminal tail; source: E. coli One Shot BL21 Star (DE3), purified
B7: FtsZ tail (residues 316-382) S333E (domain or fragment, Bacillus subtilis, UniProt P17865 316-382, looked up)
chain: B5 chain with S18E
notes: FtsZ, Bacillus subtilis, C-terminal tail, residues 316-382, S333E; pGEX-6P-3 with PreScission site; cleavage of GST not described; also called S333E tail variant; source: E. coli BL21 Star (DE3), purified
B8: FtsZ tail (residues 316-382) K335A/H337A (domain or fragment, Bacillus subtilis, UniProt P17865 316-382, looked up)
chain: B5 chain with K20A, H22A
notes: FtsZ, Bacillus subtilis, C-terminal tail, residues 316-382, K335A/H337A; pGEX-6P-3 with PreScission site; cleavage of GST not described; also called K335A/H337A tail double mutant; source: E. coli BL21 Star (DE3), purified
B9: FtsZ tail (residues 316-382) I334E (domain or fragment, Bacillus subtilis, UniProt P17865 316-382, looked up)
chain: B5 chain with I19E
notes: FtsZ, Bacillus subtilis, C-terminal tail, residues 316-382, I334E; pGEX-6P-3 with PreScission site; cleavage of GST not described; also called I334E tail mutant; source: E. coli BL21 Star (DE3), purified
B10: FtsZ tail (residues 316-382) S333A (domain or fragment, Bacillus subtilis, UniProt P17865 316-382, looked up)
chain: B5 chain with S18A
notes: FtsZ, Bacillus subtilis, C-terminal tail, residues 316-382, S333A; pGEX-6P-3 with PreScission site; cleavage of GST not described; also called S333A tail variant; source: E. coli BL21 Star (DE3), purified

Series [1] deals with the molecule itself. Kind of series: cell-based or functional assay.
The target in series [2] is B1. Kind of series: ITC; full-length FtsZ or FtsZ core (5 µM) in the cell, FtsZ tail or MinCN (50 µM) in the syringe; TKEG buffer (50 mM Tris pH 8, 50 mM KCl, 1 mM EDTA, 5% glycerol), 25°C; one-site model. The note with it: both partners purified.
Series [3] addresses T1, FtsZ core (residues 1-315). The series is described as above. To be noted: both partners purified.
Series [4] concerns the target T2, FtsZ core (residues 1-315), wild type. Kind of series: ITC; 5 µM full-length FtsZ or FtsZ core in the cell, 50 µM FtsZ tail or MinCN in the syringe; TKEG buffer (50 mM Tris pH 8, 50 mM KCl, 1 mM EDTA, 5% glycerol), 25°C; 20 injections of 2 µL; each replicate fitted.
The target in series [5] is T3, FtsZ core (residues 1-315) D210A/D213A. Kind of series: ITC; full-length FtsZ or FtsZ core (5 µM) in the cell, FtsZ tail or MinCN (50 µM) in the syringe; TKEG buffer (50 mM Tris pH 8, 50 mM KCl, 1 mM EDTA, 5% glycerol), 25°C; one-site model. The note with it: both partners purified.
The target in series [6] is T1, FtsZ core (residues 1-315). The series can be described thus: ITC; displacement: pre-formed MinCN:Core complex (45 µM MinCN + 5 µM Core, 9:1) in the cell, Tail titrated to 10 µM final; TKEG buffer, 25°C. The note with it: both partners purified.
The target in series [7] is T2, FtsZ core (residues 1-315), wild type. The series can be described thus: ITC; competition: FtsZ tail titrated into a pre-formed MinCN:Core complex (45 µM MinCN + 5 µM Core, 9:1, ~99% occupancy); TKEG buffer, 25°C. The note with it: both partners purified.
The target of series [8] is T4, FtsZ core (residues 1-315) …. Kind of series: ITC; 5 µM full-length FtsZ or FtsZ core in the cell, 50 µM FtsZ tail or MinCN in the syringe; TKEG buffer (50 mM Tris pH 8, 50 mM KCl, 1 mM EDTA, 5% glycerol), 25°C; 20 injections of 2 µL; each replicate fitted. To be noted: both partners purified.
For series [9], the target named is T5, FtsZ core (residues 1-315) D210A/D213A. Described as above. The note with it: both partners purified.

Residue numbers refer to the chain shown, from its start. Numbers in names are those of the source. Where “and” joins values, the source holds several entries; their conditions need not be identical. Equal values may be shown once. Read-outs that look alike come from different tables or passages of the source.

Regarding B1, in series [1], the “critical concentration for polymerization (x-intercept of malachite green GTPase rate against FtsZ concentration)” value was 0.51 µM and the “specific GTPase activity above the critical concentration (malachite green assay)” value turned out to be 4 GTP/min/FtsZ.
B2: in [1], the “critical concentration for polymerization (x-intercept of malachite green GTPase rate against FtsZ concentration)” value is 0.41 µM and the “specific GTPase activity above the critical concentration (malachite green assay)” value is 4.7 GTP/min/FtsZ.
Turning to B3, in series [1], the “critical concentration for polymerization (x-intercept of malachite green GTPase rate against FtsZ concentration)” value was found to be 0.37 µM and the “specific GTPase activity above the critical concentration (malachite green assay)” value is 5.1 GTP/min/FtsZ.
For the molecule B4, the Kd in [2] is above 2000 nM; in series [3] it was 495 nM and 405 nM; in series [4], 418 nM and 447 nM and 621 nM. Besides, the “stoichiometry N” value in [3] is 1 ± 0.15; in [4], 1.11 and 0.829 and 1.07.
B5: the Kd in series [5] was 501 ± 64 nM; in [2], above 2000 nM; in series [3], 228 ± 24 nM. The “stoichiometry N” value in [6] turned out to be 1.
As to B6, the “stoichiometry N” value in [7] was 1.03 and 0.948 and 0.919 and 0.965; in series [4] (both partners purified), 1.09 and 1.05 and 1.03 and 1.01; in [9], 1.18 and 1.24 and 1.1 and 1.17. The Kd was 260 nM and 222 nM and 229 nM and 202 nM in series [4] (both partners purified); 428 nM and 529 nM and 545 nM in series [9]. In addition, the binding result in [8] is on record as “binds”.
With B7, the Kd in [3] is above 2000 nM.
On the same count and under the same terms, in the case of B8 it was above 2000 nM.
Regarding B9, the Kd in [3] is above 2000 nM.
In turn, B10 gave a Kd in series [3] above 2000 nM.
